# Test results taken from PMC8115823.
# Assays:
# [1] = target: RNA polymerase (Escherichia coli) (UniProt P0A7Z4); settings: cited from earlier work
# [2] = target: DNA topoisomerase I (TopoI) of Streptococcus pneumoniae (S. pneumoniae); test: SPR; TopoI immobilised on a new CM5 chip; RNAP holoenzyme 240 nM injected alone (no drug)
# [3] = target: DNA topoisomerase I (TopoI) of Streptococcus pneumoniae (S. pneumoniae); test: SPR; TopoI immobilised on a new CM5 chip; RNAP holoenzyme 240 nM incubated with 1 x MIC rifampicin (Rif)
# [4] = target: DNA topoisomerase I (TopoI) of Streptococcus pneumoniae (S. pneumoniae); test: SPR; TopoI immobilised on a new CM5 chip; RNAP holoenzyme 240 nM incubated with 1 x MIC seconeolitsine (SCN)
# [5] = target: DNA topoisomerase I (TopoI) of Streptococcus pneumoniae (S. pneumoniae); test: SPR; Biacore X100; about 3000 RU of TopoI immobilised on a CM5 chip by amine coupling; RNAP holoenzyme 7.5-240 nM flowed at 50 ul/min; 25 C; 20 mM Tris HCl pH 7.5, 100 mM NaCl, 10 mM MgCl2, 0.1 mM EDTA, 1 mM DTT, 0.005% Tween-20, 5% glycerol; regeneration with 1 M NaCl; kinetic fit; two independent assays
# DNA topoisomerase I, sequence (P06612 whole entry): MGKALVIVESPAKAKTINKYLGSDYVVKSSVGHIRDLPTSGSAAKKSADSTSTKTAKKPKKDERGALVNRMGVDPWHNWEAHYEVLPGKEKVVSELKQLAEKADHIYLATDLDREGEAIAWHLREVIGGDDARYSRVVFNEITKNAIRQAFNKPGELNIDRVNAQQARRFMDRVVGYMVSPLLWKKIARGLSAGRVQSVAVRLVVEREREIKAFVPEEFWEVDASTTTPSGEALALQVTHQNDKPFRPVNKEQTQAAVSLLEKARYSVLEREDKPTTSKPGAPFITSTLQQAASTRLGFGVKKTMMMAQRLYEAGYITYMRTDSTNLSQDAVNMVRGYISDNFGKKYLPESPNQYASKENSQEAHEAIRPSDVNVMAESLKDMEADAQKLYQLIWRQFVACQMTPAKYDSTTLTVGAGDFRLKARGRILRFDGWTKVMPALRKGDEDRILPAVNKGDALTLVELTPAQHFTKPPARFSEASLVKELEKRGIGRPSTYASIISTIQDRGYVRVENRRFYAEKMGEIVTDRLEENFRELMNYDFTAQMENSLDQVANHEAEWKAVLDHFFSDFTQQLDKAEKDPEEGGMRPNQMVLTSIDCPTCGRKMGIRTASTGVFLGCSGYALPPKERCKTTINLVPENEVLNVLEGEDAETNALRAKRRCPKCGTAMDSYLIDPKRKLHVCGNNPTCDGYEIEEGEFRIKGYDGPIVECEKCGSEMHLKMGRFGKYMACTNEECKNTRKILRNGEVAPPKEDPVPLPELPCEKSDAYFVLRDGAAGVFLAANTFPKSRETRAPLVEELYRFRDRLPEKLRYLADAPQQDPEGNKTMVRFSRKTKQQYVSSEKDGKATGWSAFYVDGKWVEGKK
Substance,Kd [1],SPR response (no drug) [2],SPR response with Rif [3],SPR response with SCN [4],Kd [5]
DNA topoisomerase I (from UniProt P06612),93 nM,–,–,–,–
RNA polymerase (RNAP) holoenzyme of Streptococcus pneumoniae (from UniProt P66708 1-311; A0A0H2ZQA1 1-369) (complex),–,173 RU,122 RU,40.9 RU,27 nM
